Data taken from PMC2975869.

Molecular target: HA-tagged M593A-PTH1R (UniProt Q03431)
Assay: radioligand binding

Question: For [125I]-PTH(1-34)NH2 (peptide), which Total Binding (TB), cells co-transfected with EBP50 is on record?
Answer: 1290

Question: And the Total Binding (TB), cells co-transfected with pcDNA3?
Answer: 1180
